Measurements reported in patent US20260102474A1 (published 2026).

How the values were obtained:
Test in all cases: competition
[1] = biological target: SARS-COV-2 full-length trimeric spike protein, Delta (B.1.617.2) (SARS-COV-2)
[2] = biological target: Trimeric S-protein corresponding to Omicron (B.1.1.529) (SARS-COV-2)
[3] = biological target: SARS-COV-2 full-length trimeric spike protein, Gamma (P.1) (SARS-COV-2)
[4] = biological target: SARS-COV-2 full-length trimeric spike protein, Beta (B1.351) (SARS-COV-2)
[5] = biological target: SARS-COV-2 full-length trimeric spike protein, Alpha (B.1.1.7) (SARS-COV-2)

Binder | IC50 [1] [nM] | IC50 [2] [nM] | IC50 [3] [nM] | IC50 [4] [nM] | IC50 [5] [nM]
ACE2-M2-FcKO (Fc fusion) STIEEQAKYFLDYFNVQAEDLFYQSSLASWNYNTNITEENVQNMNNAGDKWSAFLKEQSTYAQRYPLQEIQNLTVKLQLQALQQNGSSVLSEDKSKRLNTILNTMSTIYSTGKVCNPDNPQECLLLEPGLNEIMANSLDYNERLWAWESWRSEVGKQLRPLYEEYVVLKNEMARANHYEDYGDYWRGDYEVNGVDGYDYSRGQLIEDVEHTFEEIKPLYEHLHAYVRAKLMNAYPSYISPIGCLPAHLLGDMWGRFWTNLYSLTVPFGQKPNIDVTDAMVDQAWDAQRIFKEAEKFFVSVGLPNMTQGFWEYSMLTDPGNVQKAVCHPTAWDLGKGDFRILMCTKVTMDDFLTAHREMGRIQYDMAYAAQPFLLRNGANEGFHEAVGEIMSLSAATPKHLKSIGLLSPDFQEDNETEINFLLKQALTIVGTLPFTYMLEKWRWMVFKGEIPKDQWMKKWWEMKREIVGVVEPVPHDETYCDPASLFHVSNDYSFIRYYTRTLYQFQFQEALCQAAKHEGPLHKCDISNSTEAGQKLFNMLRLGKSEPWTLALENVVGAKNMNVRPLLNYFEPLFTWLKDQNKNSFVGWSTDWSPYADQSIKVRISLKSALGDKAYEWNDNEMYLFRSSVAYAMRQYFLKVKNQMILFGEEDVRVANLKPRISFNFFVTAPKNVSDIIPRTEVEKAIRMSRSRINDAFRLNDNSLEFLGIQPTLGPPNQPPVSSGGGGSGGGGSGGGGSEPKSSDKTHTCPPCPAPPVAGPSVFLFPPKPKDTLMISRTPEVTCVVVGVSHEDPEVKFNWYVDGVEVHNAKTKPREEQYNSTYRVVSVLTVLHQDWLNGKEYKCKVSNKQLPSPIEKTISKAKGQPGQPREPQVYTLPPSRDELTKNQVSLTCLVKGFYPSDIAVEWESNGQPENNYKTTPPVLDSDGSFFLYSKLTVDKSRWQQGNVFSCSVMHEALHNHYTQKSLSLSPGK | 3.3 | 0.7 | 3.6 | 3.9 | 4.3
ACE2-M1-FcKO (Fc fusion) STIEEQAKYFLDKFNHEAEDLFYQSSLASWNYNTNITEENVQNMNNAGDKWSAFLKEQSTYAQMYPLQEIQNLTVKLQLQALQQNGSSVLSEDKSKRLNTILNTMSTIYSTGKVCNPDNPQECLLLEPGLNEIMANSLDYNERLWAWESWRSEVGKQLRPLYEEYVVLKNEMARANHYEDYGDYWRGDYEVNGVDGYDYSRGQLIEDVEHTFEEIKPLYEHLHAYVRAKLMNAYPSYISPIGCLPAHLLGDMWGRFWTNLYSLTVPFGQKPNIDVTDAMVDQAWDAQRIFKEAEKFFVSVGLPNMTQGFWEYSMLTDPGNVQKAVCHPTAWDLGKGDFRILMCTKVTMDDFLTAHREMGRIQYDMAYAAQPFLLRNGANEGFHEAVGEIMSLSAATPKHLKSIGLLSPDFQEDNETEINFLLKQALTIVGTLPFTYMLEKWRWMVFKGEIPKDQWMKKWWEMKREIVGVVEPVPHDETYCDPASLFHVSNDYSFIRYYTRTLYQFQFQEALCQAAKHEGPLHKCDISNSTEAGQKLFNMLRLGKSEPWTLALENVVGAKNMNVRPLLNYFEPLFTWLKDQNKNSFVGWSTDWSPYADQSIKVRISLKSALGDKAYEWNDNEMYLFRSSVAYAMRQYFLKVKNQMILFGEEDVRVANLKPRISFNFFVTAPKNVSDIIPRTEVEKAIRMSRSRINDAFRLNDNSLEFLGIQPTLGPPNQPPVSSGGGGSGGGGSGGGGSEPKSSDKTHTCPPCPAPPVAGPSVFLFPPKPKDTLMISRTPEVTCVVVGVSHEDPEVKFNWYVDGVEVHNAKTKPREEQYNSTYRVVSVLTVLHQDWLNGKEYKCKVSNKQLPSPIEKTISKAKGQPGQPREPQVYTLPPSRDELTKNQVSLTCLVKGFYPSDIAVEWESNGQPENNYKTTPPVLDSDGSFFLYSKLTVDKSRWQQGNVFSCSVMHEALHNHYTQKSLSLSPGK | 1.8 | 0.5 | 3.8 | 3.9 | 6.9
